Measurements reported in IntAct's records for PubMed 29892012.

B1: E3 ubiquitin-protein ligase LNX (Homo sapiens), Q8TBB1 (parent)
chain: MNQPESANDPEPLCAVCGQAHSLEENHFYSYPEEVDDDLICHICLQALLDPLDTPCGHTYCTLCLTNFLVEKDFCPMDRKPLVLQHCKKSSILVNKLLNKLLVTCPFREHCTQVLQRCDLEHHFQTSCKGASHYGLTKDRKRRSQDGCPDGCASLTATAPSPEVSAAATISLMTDEPGLDNPAYVSSAEDGQPAISPVDSGRSNRTRARPFERSTIRSRSFKKINRALSVLRRTKSGSAVANHADQGRENSENTTAPEVFPRLYHLIPDGEITSIKINRVDPSESLSIRLVGGSETPLVHIIIQHIYRDGVIARDGRLLPGDIILKVNGMDISNVPHNYAVRLLRQPCQVLWLTVMREQKFRSRNNGQAPDAYRPRDDSFHVILNKSSPEEQLGIKLVRKVDEPGVFIFNVLDGGVAYRHGQLEENDRVLAINGHDLRYGSPESAAHLIQASERRVHLVVSRQVRQRSPDIFQEAGWNSNGSWSPGPGERSNTPKPLHPTITCHEKVVNIQKDPGESLGMTVAGGASHREWDLPIYVISVEPGGVISRDGRIKTGDILLNVDGVELTEVSRSEAVALLKRTSSSIVLKALEVKEYEPQEDCSSPAALDSNHNMAPPSDWSPSWVMWLELPRCLYNCKDIVLRRNTAGSLGFCIVGGYEEYNGNKPFFIKSIVEGTPAYNDGRIRCGDILLAVNGRSTSGMIHACLARLLKELKGRITLTIVSWPGTFL
partner: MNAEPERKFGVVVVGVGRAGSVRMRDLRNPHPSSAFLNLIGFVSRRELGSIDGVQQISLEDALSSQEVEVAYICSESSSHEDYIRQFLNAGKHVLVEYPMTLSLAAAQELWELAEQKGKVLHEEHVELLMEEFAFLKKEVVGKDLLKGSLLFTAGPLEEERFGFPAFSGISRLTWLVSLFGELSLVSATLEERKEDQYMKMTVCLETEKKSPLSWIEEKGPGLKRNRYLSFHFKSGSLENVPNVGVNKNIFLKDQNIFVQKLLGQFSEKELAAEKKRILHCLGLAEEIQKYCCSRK
B2: Abl interactor 2 (Homo sapiens), Q9NYB9 (parent)
chain: MAELQMLLEEEIPGGRRALFDSYTNLERVADYCENNYIQSADKQRALEETKAYTTQSLASVAYLINTLANNVLQMLDIQASQLRRMESSINHISQTVDIHKEKVARREIGILTTNKNTSRTHKIIAPANLERPVRYIRKPIDYTILDDIGHGVKWLLRFKVSTQNMKMGGLPRTTPPTQKPPSPPMSGKGTLGRHSPYRTLEPVRPPVVPNDYVPSPTRNMAPSQQSPVRTASVNQRNRTYSSSGSSGGSHPSSRSSSRENSGSGSVGVPIAVPTPSPPSVFPAPAGSAGTPPLPATSASAPAPLVPATVPSSTAPNAAAGGAPNLADGFTSPTPPVVSSTPPTGHPVQFYSMNRPASRHTPPTIGGSLPYRRPPSITSQTSLQNQMNGGPFYSQNPVSDTPPPPPPVEEPVFDESPPPPPPPEDYEEEEAAVVEYSDPYAEEDPPWAPRSYLEKVVAIYDYTKDKEDELSFQEGAIIYVIKKNDDGWYEGVMNGVTGLFPGNYVESIMHYSE
partner: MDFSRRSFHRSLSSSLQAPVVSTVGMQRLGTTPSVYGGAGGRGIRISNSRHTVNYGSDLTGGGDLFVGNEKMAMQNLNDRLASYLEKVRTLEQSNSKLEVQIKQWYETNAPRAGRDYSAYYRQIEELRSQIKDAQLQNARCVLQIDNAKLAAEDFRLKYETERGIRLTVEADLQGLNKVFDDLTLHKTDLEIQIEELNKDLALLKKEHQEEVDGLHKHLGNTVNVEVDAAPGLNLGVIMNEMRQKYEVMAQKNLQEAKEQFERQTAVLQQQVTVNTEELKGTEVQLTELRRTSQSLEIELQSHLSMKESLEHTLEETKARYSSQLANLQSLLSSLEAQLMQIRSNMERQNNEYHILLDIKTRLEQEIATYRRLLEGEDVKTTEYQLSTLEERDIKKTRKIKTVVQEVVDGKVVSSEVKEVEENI
B3: Histone-lysine N-methyltransferase SMYD1 (Homo sapiens), Q8NB12 (parent)
chain: MTIGRMENVEVFTAEGKGRGLKATKEFWAADIIFAERAYSAVVFDSLVNFVCHTCFKRQEKLHRCGQCKFAHYCDRTCQKDAWLNHKNECSAIKRYGKVPNENIRLAARIMWRVEREGTGLTEGCLVSVDDLQNHVEHFGEEEQKDLRVDVDTFLQYWPPQSQQFSMQYISHIFGVINCNGFTLSDQRGLQAVGVGIFPNLGLVNHDCWPNCTVIFNNGNHEAVKSMFHTQMRIELRALGKISEGEELTVSYIDFLNVSEERKRQLKKQYYFDCTCEHCQKKLKDDLFLGVKDNPKPSQEVVKEMIQFSKDTLEKIDKARSEGLYHEVVKLCRECLEKQEPVFADTNIYMLRMLSIVSEVLSYLQAFEEASFYARRMVDGYMKLYHPNNAQLGMAVMRAGLTNWHAGNIEVGHGMICKAYAILLVTHGPSHPITKDLEAMRVQTEMELRMFRQNEFMYYKMREAALNNQPMQVMAEPSNEPSPALFHKKQ
partner: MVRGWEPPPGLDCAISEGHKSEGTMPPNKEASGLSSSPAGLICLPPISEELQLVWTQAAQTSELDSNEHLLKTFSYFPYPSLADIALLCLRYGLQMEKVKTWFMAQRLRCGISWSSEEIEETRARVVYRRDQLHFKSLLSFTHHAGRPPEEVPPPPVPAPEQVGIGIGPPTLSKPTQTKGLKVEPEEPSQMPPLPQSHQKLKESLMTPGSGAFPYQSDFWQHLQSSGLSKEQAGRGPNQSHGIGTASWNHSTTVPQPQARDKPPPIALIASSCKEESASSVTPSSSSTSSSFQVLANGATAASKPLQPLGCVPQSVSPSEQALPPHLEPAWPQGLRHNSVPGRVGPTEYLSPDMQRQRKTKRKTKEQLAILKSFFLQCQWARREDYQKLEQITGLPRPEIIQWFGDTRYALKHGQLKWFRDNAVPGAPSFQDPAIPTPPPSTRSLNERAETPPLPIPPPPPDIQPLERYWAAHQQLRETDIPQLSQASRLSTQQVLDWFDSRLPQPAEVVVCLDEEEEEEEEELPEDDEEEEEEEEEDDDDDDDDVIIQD
B4: Abl interactor 2 (Homo sapiens), Q9NYB9 (parent)
chain: B2 chain
partner: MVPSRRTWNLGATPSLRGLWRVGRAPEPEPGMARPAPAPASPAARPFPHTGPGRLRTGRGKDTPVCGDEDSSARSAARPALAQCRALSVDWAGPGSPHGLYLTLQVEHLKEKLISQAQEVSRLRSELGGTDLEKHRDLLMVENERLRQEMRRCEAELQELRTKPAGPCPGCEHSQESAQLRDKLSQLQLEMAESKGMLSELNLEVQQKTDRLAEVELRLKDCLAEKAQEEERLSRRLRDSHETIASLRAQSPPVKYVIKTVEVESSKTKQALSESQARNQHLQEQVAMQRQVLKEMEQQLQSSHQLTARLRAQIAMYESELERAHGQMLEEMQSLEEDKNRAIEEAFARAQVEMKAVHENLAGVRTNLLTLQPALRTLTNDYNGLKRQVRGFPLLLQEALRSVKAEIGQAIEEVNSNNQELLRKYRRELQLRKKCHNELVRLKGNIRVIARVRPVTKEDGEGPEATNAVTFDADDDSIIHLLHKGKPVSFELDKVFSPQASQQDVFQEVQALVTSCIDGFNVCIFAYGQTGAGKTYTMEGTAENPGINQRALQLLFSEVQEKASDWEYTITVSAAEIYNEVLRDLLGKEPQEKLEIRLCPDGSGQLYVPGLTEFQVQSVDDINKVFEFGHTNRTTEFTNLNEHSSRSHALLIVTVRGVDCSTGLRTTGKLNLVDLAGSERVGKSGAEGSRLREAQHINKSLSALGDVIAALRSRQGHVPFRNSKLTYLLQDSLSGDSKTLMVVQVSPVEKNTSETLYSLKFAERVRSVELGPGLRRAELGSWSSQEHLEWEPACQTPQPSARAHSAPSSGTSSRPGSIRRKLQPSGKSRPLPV

Variants of: B1
Conditions: with biea_human BLVRA

effect of a mutation on the interaction	Variant
disrupting interaction strength	E295K

Variants of: B2
Conditions: with KRT20, P35900

effect of a mutation on the interaction	Variant
with no effect	R373C

Variants of: B2
Conditions: with KRT20, P35900
Remark: another data set of the same source

effect of a mutation on the interaction	Variant
with no effect	E202K

Variants of: B3
Conditions: with homez_human HOMEZ

effect of a mutation on the interaction	Variant
with no effect	Q443R

Variants of: B4
Conditions: with kifc3_human KIFC3, Q9BVG8

effect of a mutation on the interaction	Variant
disrupting interaction strength	R373C
